In the supplement of paper PMC9732359:
± gives the uncertainty stated by the source.

assay: protein stability index of a GFP-peptide fusion (yeast GPS) (PSI 1-4); higher = more stable; sorted into four equal gates, so the index is relative within each strain; conditions: doa10∆
Method in brief: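 The protein stability index of a peptide was calculated by multiplying its read frequency in each gate by that gate's number and adding the products. The peptides were tiled 17-residue stretches of yeast proteins, fused downstream of GFP on a Cherry-expressing plasmid and carried in yeast as a pooled library. Mid-log cultures in leucine-free medium were sorted into four equal gates by GFP/Cherry ratio, and each gate's plasmids were PCR-amplified and Illumina-sequenced.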

Sequence	protein stability index
NVEESVSKADILLSHHR [POP5]	3.16 ± 0.19
NVFNDTPRGNHWMGSSV [YMR129W/POM152]	3.39 ± 0.11
NVGTNTYRLGEWSKISV [POP1]	1.97 ± 0.25
NVKELWTEKKGKNVINR [SMD2]	3.46 ± 0.22
NVLKAPFIKSESKPFSS [SIR4]	2.65 ± 0.068
NVMLNIYPRTVIDIEIH [SKI6]	1.35 ± 0.039
NVNLDDYPDDSGWTPFH [NAS6]	3 ± 0.091
NVRSSVLQKVIEWAEHH [SKP1]	2.4 ± 0.096
NVRVGQAVETVGQAGRP [RPN1]	2.4 ± 0.11
NVSDEQLSNWQKIRNSE [ITC1]	3.15 ± 0.071
NVSENQPWQMDTNNEAD [SNF12]	3.11 ± 0.052
NVTIAQGGVLPNIHQNL [HTA1]	1.65 ± 0.05
NVTTILDEIFSGCDSTK [ECM29]	2.28 ± 0.12
NVVEADLKRFVDESLLS [QCR2]	3.14 ± 0.1
NWRKQKGIDSVVRRRFR [RPL32]	2.56 ± 0.1
NYGIVELDPECQLQNSD [RRP43]	2.96 ± 0.075
NYQYKIQELRKLLKSLL [MED7]	1.43 ± 0.07
PAAANLDALVDCENFFN [YJL039C/NUP192]	2.71 ± 0.085
PADRPQGRRNSRNFSTR [SIR4]	3.02 ± 0.11
PAKIVNFEKPKNSSQLL [RPN5]	3.06 ± 0.075
PAKPALSFGTATSDNKT [YJL041W/NSP1]	3.05 ± 0.09
PAKVAEEGINKFKKEKF [SRP54]	3.2 ± 0.066
PALESSPVTGDNSPSED [SNF2]	3.25 ± 0.067
PANVLLVQSLNDMVLEL [NNF1]	2.67 ± 0.18
PASKHDKEVVYFDEWTI [RPC34]	3.27 ± 0.081
PATTSQMAKDVTTFLNW [CYT1]	3.16 ± 0.12

Sequence	protein stability index
PCLRKYEEFRDVAIENN [RRP43]	2.73 ± 0.064
PDDDKIVPLTEGDIQVL [RPT1]	3.21 ± 0.097
PDDMVEINSVGNPGLPQ [ITC1]	2.85 ± 0.086
PDEAIEKVFNAYPAARE [FAS1]	2.94 ± 0.099
PDISRAVINIRDDGKRE [RPO31]	2.78 ± 0.083
PDKLLGVILMFAAILVL [COB]	1.63 ± 0.11
PDSNHLSSETGIKLALD [SRB4]	3.3 ± 0.087
PDVLLSRVINVVRAASS [RRP6]	1.26 ± 0.081
PEDPYFNTLVRIMSTRC [DIS3]	2.38 ± 0.093
PEGYKAKSISTSAKEPS [RPO31]	1.39 ± 0.085
PELNVSLNLTDDVISNA [MCD1]	3.09 ± 0.04
PEVSMIRDIREKELKIF [RPB2]	3.13 ± 0.15
PFKRKMLLVDIIPSRMG [REC8]	1.81 ± 0.069
PFNQGSKQDVEALIEFI [FAS2]	3.08 ± 0.073
PFSLTYVRTEETDGKHG [YMR129W/POM152]	3.13 ± 0.14
PGEFVTAIAHSIREQVH [SNF5]	2.27 ± 0.08
PGGILRAQHVKKLATRP [RPL34A]	3.04 ± 0.24
PGRKYTTLGKLSTSVGW [RPL16A]	2.92 ± 0.089
PGSVEEVDKSKLITTYI [YDL116W/NUP84]	3.39 ± 0.18
PHATATEKEPVPAVVDD [SNF6]	3.24 ± 0.11
PHIIAVACLFITISIHG [SSN8]	1.17 ± 0.055
PHNSKSLGFLQQSNKLH [RPN3]	3.11 ± 0.059
PIKADKDYSQILKEEFP [RPN5]	3 ± 0.1
PIKNRTSKSFSKLLYDD [SIN4]	2.63 ± 0.07
PIPFEFQAVIQKSINHP [SNF2]	2.67 ± 0.11
PIPSKPTLFDLAFNYIT [SRP68]	1.64 ± 0.051

Sequence	protein stability index
PIPVQGEIEIKPNEEEE [RPN13]	2.45 ± 0.081
PKALRFDRLVAGQIPTG [FAS2]	2.15 ± 0.18
PKCHSRENVFFQSQQRR [RPB9]	3.14 ± 0.088
PKDFSPNFTGIDKLMLS [SSN2]	1.42 ± 0.17
PKKALKVKAGVRSANED [RRP43]	2.84 ± 0.1
PKKHLSETADETLENNI [RPN11]	3.15 ± 0.1
PKMQWSLQDNSAAINNE [RPN4]	3.15 ± 0.063
PKNKLVPTLEAKRDYII [FAS1]	1.71 ± 0.071
PKVKEIKTVVLVPQLGH [PRP8]	1.93 ± 0.088
PKVPVSAAATPSLNKTI [GAL11]	2.5 ± 0.039
PKVTPQMMQQAQQKLKQ [SRP54]	1.42 ± 0.25
PLDEIPVDVDFNLDLDD [REC8]	2.7 ± 0.1
PLDRLENVLAIGIAGAH [SKI6]	1.26 ± 0.085
PLDSKDENFASVSPAGP [SNF2]	3.05 ± 0.11
PLFIVEDDESLGHKELK [RPB2]	3.34 ± 0.15
PLHSGKTSLMDLLVIDS [SNU114]	2.48 ± 0.068
PLITRHCYPRQLCQITC [RRP46]	1.89 ± 0.054
PLIWQLLQSSIINKLIH [POP3]	2 ± 0.059
PLKLSGEGPFTVKFKHM [YMR129W/POM152]	2.92 ± 0.064
PLNDGFVDLVEHFLKLN [YML103C/NUP188]	1.84 ± 0.28
PLPLDLNVQVWHIEETG [ITC1]	1.87 ± 0.063
PLRGALATYGLTIDDLG [FAS2]	2.38 ± 0.087
PLVLLQQIPLLCYMAPM [POP3]	1.72 ± 0.053
PNCPRPNMSICIFGDAF [RPL1A]	1.75 ± 0.083
PNIADYITAKNNVVINF [PRP8]	2.11 ± 0.087
PNIFPNLTYYNEKLECI [ITC1]	2.6 ± 0.07

Sequence	protein stability index
PNMSICIFGDAFDVDRA [RPL1A]	2.78 ± 0.071
PNSERETDHANTENNDP [IRR1]	2.69 ± 0.073
PNSERSGTPTLKKNIEP [YOR098C/NUP1]	3.32 ± 0.14
PNSNKTHTEQNNPPKPQ [SNF2]	2.78 ± 0.056
PPGLDALVKPETQFKLS [CDC53]	2.82 ± 0.058
PPLLVYKWTQGINNLSE [PRP8]	3.09 ± 0.12
PPPPPPPGYEIEELDNP [PRP8]	2.87 ± 0.046
PPPYVKFFTQSNLEKLP [MED7]	2.25 ± 0.036
PPTTSNLIIFLYKFNGW [YML103C/NUP188]	1.76 ± 0.046
PQALRVLRLKPGRKYTT [RPL16A]	2.97 ± 0.044
PQDLTFNAGSNPPSYQS [RPB7]	2.96 ± 0.17
PQIVVPDAQNELPKFIL [DIS3]	2.9 ± 0.049
PQLISDKFSPEDGLGPL [ARP7]	2.84 ± 0.072
PQQPMVKTKTIELIDYD [RET1]	2.89 ± 0.14
PQWKRHLEEYGYLIQVL [YCS4]	2.27 ± 0.052
PRDVIKGKDFEITAKEV [FAS1]	3.27 ± 0.095
PRFLNKQERSKQERLKE [PRP28]	1.91 ± 0.091
PRLGSIDRNLKCQTCQE [RPO21]	2.01 ± 0.099
PRLSHLSLTAVPSFLRP [GRR1]	2.09 ± 0.042
PRMASVFENYVKKTGEN [CDC53]	3.46 ± 0.11
PRRDGERKRKSVRGAIV [RPS6A]	3.16 ± 0.099
PRTLIGHRATVTDIAII [RPN14]	3.24 ± 0.18
PSDMVIPDHLAELIPEL [SNF12]	3.09 ± 0.08
PSEDVAAPKKTRKAVRP [RPL6B]	2.74 ± 0.089
PSFTDEQWITIESQMRD [PRP8]	2.44 ± 0.067
